Data published in patent publication US20090118184A1 (UNIVERSITY OF ROCHESTER, published 2009).

Molecular target: T1, factor VIIIa A1/A3C1C2 dimer, Glu272Ala (human, UniProt P00451 20-391; P00451 1709-2351)
T1 chain 1: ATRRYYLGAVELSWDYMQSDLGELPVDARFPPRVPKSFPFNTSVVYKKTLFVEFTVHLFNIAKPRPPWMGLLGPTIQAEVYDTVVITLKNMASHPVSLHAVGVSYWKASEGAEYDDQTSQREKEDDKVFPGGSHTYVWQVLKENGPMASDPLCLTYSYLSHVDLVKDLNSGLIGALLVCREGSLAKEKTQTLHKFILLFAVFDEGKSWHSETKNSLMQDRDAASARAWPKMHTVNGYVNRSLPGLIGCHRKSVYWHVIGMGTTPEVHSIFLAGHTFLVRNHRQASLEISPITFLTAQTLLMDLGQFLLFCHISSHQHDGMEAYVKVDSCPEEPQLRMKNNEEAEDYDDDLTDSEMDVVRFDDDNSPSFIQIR
T1 chain 2: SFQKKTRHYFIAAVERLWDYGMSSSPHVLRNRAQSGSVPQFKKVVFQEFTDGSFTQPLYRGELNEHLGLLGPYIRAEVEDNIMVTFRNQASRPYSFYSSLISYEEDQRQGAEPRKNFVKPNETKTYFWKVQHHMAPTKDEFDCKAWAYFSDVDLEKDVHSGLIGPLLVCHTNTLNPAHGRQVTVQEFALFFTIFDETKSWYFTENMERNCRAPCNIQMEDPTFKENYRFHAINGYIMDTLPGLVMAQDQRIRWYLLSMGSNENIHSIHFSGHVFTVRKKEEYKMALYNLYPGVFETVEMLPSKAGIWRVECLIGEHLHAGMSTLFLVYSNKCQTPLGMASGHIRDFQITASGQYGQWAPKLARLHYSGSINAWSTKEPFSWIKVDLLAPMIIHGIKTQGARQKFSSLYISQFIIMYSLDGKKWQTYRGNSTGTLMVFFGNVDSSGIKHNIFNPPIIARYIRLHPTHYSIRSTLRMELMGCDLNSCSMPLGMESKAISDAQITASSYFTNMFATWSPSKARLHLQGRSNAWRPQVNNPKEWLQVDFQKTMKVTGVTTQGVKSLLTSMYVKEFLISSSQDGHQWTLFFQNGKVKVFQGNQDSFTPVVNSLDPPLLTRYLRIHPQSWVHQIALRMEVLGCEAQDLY
Assay: cell-based or functional assay

B1: factor VIIIa A2 subunit, wild type (other)
chain: SVAKKHPKTWVHYIAAEEEDWDYAPLVLAPDDRSYKSQYLNNGPQRIGRKYKKVRFMAYTDETFKTREAIQHESGILGPLLYGEVGDTLLIIFKNQASRPYNIYPHGITDVRPLYSRRLPKGVKHLKDFPILPGEIFKYKWTVTVEDGPTKSDPRCLTRYYSSFVNMERDLASGLIGPLLICYKESVDQRGNQIMSDKRNVILFSVFDENRSWYLTENIQRFLPNPAGVQLEDPEFQASNIMHSINGYVFDSLQLSVCLHEVAYWYILSIGAQTDFLSVFFSGYTFKHKMVYEDTLTLFPFSGETVFMSMENPGLWILGCHNSDFRNRGMTALLKVSSCDKNTGDYYEDSYEDISAYLLSKNNAIEPR
  Factor VIIIa Decay relative to the WT value, Factor IXa absent: 1.95 relative to WT
  Factor VIIIa Decay relative to the WT value, Factor IXa present: 1.06 relative to WT
  Factor VIIIa Decay, Factor IXa absent: 0.164 min⁻¹
  Factor VIIIa Decay, Factor IXa present: 0.0163 min⁻¹
